The source of these data is article PMC4837325, “Arabidopsis HIGH PLOIDY2 Sumoylates and Stabilizes Flowering Locus C through Its E3 Ligase Activity” (Frontiers in Plant Science, 2016).

In the test the target is T1, GST-HPY2 (Arabidopsis thaliana, UniProt Q8GYH7 1-249).
T1 construct: HIGH PLOIDY2 (HPY2), E3 SUMO ligase of Arabidopsis, full-length cDNA cloned into pGEX4T-1; also called HIGH PLOIDY2; AtHPY2; source: E. coli BL21, purified (glutathione resin)
T1 sequence (looked up): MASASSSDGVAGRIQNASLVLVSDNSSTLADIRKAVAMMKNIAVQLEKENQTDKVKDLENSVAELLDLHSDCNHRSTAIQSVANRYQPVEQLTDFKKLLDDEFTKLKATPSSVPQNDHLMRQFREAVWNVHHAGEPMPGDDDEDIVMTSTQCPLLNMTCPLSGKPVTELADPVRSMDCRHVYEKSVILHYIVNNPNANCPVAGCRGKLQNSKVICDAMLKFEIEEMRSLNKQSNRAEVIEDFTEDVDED
Briefly: pull-down; in vitro GST pull-down, 2 ug each of GST-HPY2 bait and His6-FLC prey; His6-FLC detected by Western blot with anti-His antibody. The following applies: both partners purified.

B1: His6-FLC (natural protein, Arabidopsis thaliana, UniProt Q9S7Q7 1-196, looked up)
chain: MGRKKLEIKRIENKSSRQVTFSKRRNGLIEKARQLSVLCDASVALLVVSASGKLYSFSSGDNLVKILDRYGKQHADDLKALDHQSKALNYGSHYELLELVDSKLVGSNVKNVSIDALVQLEEHLETALSVTRAKKTELMLKLVENLKEKEKMLKEENQVLASQMENNHHVGAEAEMEMSPAGQISDNLPVTLPLLN
notes: Flowering Locus C (FLC), MADS-box transcription factor of Arabidopsis, full-length cDNA cloned into pET28a; also called Flowering Locus C; source: E. coli BL21, purified (Ni2+-NTA resin)
Regarding B1, the binding result is reported as “binds”.
